Assay results reported in article PMC5343488, “Epilepsy and intellectual disability linked protein Shrm4 interaction with GABABRs shapes inhibitory neurotransmission” (Nature Communications, 2017).

Target: T1, GST-PDZ (Shrm4-PDZ domain, aa 1–91) (human, UniProt Q9ULL8 1-91)
T1 construct: Shrm4 (Shroom4), encoded by KIAA1202, PDZ domain, aa 1-91; in pGEX-4T-1, which should put GST at the N-terminus; source: E. coli BL21, purified using standard procedures
T1 sequence (looked up): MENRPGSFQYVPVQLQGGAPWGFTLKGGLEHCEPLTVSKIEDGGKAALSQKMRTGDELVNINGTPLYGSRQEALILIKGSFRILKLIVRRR
Test: pull-down; competition: synthetic Tat-859–870 peptide added to the HEK293 lysate before the pull-down of GABAB1a by purified GST-PDZ; 10 μM or different concentrations
Details: both partners purified

B1: Tat-859–870 peptide (peptide)
peptide: YGRKKRRQRRRITRGEWQSET
notes: stretch of the GABAB1 C-tail named 859–870; also called Tat-peptide; Tat-859–870 (active) peptide; source: synthetic peptide (bought: Primm, Italy, and China Peptide, China)
B1: binds.
